The test has as its target T1, His6-CIII (bacteriophage lambda CIII) (bacteriophage lambda), P03044.
T1 chain: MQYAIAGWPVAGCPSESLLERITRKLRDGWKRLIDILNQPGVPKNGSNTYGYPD
The experiment in a line: cross-linking; 10 µM His6-CIII in PBS with 0.1 mg/ml BSA at 42°C, 0.25% glutaraldehyde for 1 or 5 minutes, stopped by 200 mM glycine; NuPAGE and western blot against the His6 tag. The note with it: remark: other sources report otherwise. A general note: In western blotting, separated proteins are transferred to a membrane and probed.

Broadly, the stoichiometry N is the number of molecules, sites or subunits per partner or assembly.

B1: His6-CIII (bacteriophage lambda CIII), P03044 1-54 (natural protein)
chain: T1 chain
Molecule B1 registered a stoichiometry N of less than 12.

The record behind these values is article PMC1838920.
